Experimental data from US20180215802A1 (MUSC FOUNDATION FOR RESEARCH DEVELOPMENT, published 2018).

T1: Recombinant human Smad4 (NM 005359) with C-terminal MYC/DDK tag (human, UniProt Q13485 1-552)
T1 construct: Bought from OriGene; also called DDK-tagged recombinant Smad4; DDK-tagged Smad4; not shown: C-terminal MYC/DDK tag
T1 sequence (looked up): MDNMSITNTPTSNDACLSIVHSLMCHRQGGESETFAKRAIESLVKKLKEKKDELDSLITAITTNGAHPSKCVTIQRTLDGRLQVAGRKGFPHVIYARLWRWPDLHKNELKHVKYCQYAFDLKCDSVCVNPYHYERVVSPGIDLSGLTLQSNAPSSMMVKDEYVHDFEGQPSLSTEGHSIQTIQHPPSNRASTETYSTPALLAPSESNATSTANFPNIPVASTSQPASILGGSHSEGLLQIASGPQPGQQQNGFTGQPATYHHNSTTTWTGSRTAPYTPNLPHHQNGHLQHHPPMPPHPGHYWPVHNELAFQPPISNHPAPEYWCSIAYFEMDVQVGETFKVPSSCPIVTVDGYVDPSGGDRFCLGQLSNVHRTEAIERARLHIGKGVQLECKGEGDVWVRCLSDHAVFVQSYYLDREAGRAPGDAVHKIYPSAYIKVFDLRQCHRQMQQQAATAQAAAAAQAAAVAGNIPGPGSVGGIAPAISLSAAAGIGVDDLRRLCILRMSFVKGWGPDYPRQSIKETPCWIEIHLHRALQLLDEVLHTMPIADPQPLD

B1: caspase-3 (activated, endogenous in lung fibroblasts and alveolar epithelial cells) (protein)
chain: SGISLDNSYKMDYPEMGLCIIINNKNFHKSTGMTSRSGTDVDAANLRETFRNLKYEVRNKNDLTREEIVELMRDVSKEDHSKRSSFVCVLLSHGEEGIIFGTNGPVDLKKITNFFRGDRCRSLTGKPKLFIIQACRGTELDCGIETDSGVDDDMACHKIPVEADFLYAYSTAPGYYSWRNSKDGSWFIQSLCAMLKQYADKLEFMHILTRVNRKVATEFESFSFDATFHAKKQIPCIVSMLTKELYFYH
B2: M10 peptide (TRPASFWETS), synthetic (peptide)
peptide: TRPASFWETS
notes: Synthetic peptide from GenScript; A 5,6-TAMRA conjugate (at the N-terminus) was used only for localisation; also called 2 kD C-terminal fragment (M10) of the MET receptor; last 10 amino acids of MET

Legend:
[1] = target: MET receptor tyrosine kinase, wild type, full length, P08581
[2] = target: T2, Recombinant human Smad2 (NM 005901) with C-terminal MYC/DDK tag (human, UniProt Q15796 1-467); assay: peptide-protein interaction assay: M10 and DDK-tagged Smad2 (1 µg each), capture with C12 antibody and protein G sepharose, anti-DDK immunoblot
T2 construct: Bought from OriGene; also called DDK-tagged recombinant Smad2; DDK-tagged Smad2; not shown: C-terminal MYC/DDK tag

[3] = target: T1, Recombinant human Smad4 (NM 005359) …; assay: peptide-protein interaction assay: capture with C12 antibody and protein G sepharose, anti-DDK immunoblot
Description: C-12 antibody (1 μg) was added, and incubation was continued for another 30 minutes followed by adding 50 μl of protein G-sepharose slurry for an additional 20 minutes. The resin was washed three times with buffer A; the retained proteins were solubilized in Laemmli sample buffer and subjected to immunoblotting with anti-DDK monoclonal antibody.
As a positive control for anti-DDK antibody, the gel was loaded with 5 μl-aliquots of a buffer containing DDK-tagged recombinant Smad2 or Smad4 proteins.

Sequence of MET receptor tyrosine kinase, wild type, full length, P08581 (P08581 whole entry, looked up): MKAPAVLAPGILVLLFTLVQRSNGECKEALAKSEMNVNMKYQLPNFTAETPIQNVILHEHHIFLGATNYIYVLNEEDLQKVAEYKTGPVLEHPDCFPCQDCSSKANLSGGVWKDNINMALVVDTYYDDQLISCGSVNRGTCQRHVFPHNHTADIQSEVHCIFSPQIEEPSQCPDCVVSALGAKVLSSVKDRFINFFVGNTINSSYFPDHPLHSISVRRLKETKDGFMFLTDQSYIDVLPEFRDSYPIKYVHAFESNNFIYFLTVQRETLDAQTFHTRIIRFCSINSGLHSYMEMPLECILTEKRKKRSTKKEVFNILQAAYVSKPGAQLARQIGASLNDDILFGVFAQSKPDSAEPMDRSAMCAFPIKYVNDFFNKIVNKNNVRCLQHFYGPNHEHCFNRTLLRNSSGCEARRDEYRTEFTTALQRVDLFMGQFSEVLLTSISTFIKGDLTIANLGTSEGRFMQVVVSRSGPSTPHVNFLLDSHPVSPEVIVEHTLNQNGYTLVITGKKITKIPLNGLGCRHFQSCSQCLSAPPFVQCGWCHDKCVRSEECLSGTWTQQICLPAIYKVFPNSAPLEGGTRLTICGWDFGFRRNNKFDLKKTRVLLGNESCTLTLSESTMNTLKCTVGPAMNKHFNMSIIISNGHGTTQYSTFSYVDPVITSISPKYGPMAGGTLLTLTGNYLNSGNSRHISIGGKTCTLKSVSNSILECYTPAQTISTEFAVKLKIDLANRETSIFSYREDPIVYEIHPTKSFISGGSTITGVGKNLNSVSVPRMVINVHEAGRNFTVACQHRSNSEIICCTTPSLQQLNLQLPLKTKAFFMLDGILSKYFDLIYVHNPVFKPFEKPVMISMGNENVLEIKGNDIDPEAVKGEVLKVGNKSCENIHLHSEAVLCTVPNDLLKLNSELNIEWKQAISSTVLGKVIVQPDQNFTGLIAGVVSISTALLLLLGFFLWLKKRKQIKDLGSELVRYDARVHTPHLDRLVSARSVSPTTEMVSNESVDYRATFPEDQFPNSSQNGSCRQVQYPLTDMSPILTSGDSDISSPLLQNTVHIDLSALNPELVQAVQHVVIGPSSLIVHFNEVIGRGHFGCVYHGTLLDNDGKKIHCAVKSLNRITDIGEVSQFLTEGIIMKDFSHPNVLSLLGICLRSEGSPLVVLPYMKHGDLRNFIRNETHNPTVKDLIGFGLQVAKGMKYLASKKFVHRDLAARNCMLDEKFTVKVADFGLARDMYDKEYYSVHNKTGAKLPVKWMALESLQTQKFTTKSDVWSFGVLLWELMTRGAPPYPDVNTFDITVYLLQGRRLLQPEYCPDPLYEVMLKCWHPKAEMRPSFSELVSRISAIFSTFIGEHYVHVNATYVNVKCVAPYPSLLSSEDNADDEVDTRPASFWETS
T2 sequence (Q15796 whole entry): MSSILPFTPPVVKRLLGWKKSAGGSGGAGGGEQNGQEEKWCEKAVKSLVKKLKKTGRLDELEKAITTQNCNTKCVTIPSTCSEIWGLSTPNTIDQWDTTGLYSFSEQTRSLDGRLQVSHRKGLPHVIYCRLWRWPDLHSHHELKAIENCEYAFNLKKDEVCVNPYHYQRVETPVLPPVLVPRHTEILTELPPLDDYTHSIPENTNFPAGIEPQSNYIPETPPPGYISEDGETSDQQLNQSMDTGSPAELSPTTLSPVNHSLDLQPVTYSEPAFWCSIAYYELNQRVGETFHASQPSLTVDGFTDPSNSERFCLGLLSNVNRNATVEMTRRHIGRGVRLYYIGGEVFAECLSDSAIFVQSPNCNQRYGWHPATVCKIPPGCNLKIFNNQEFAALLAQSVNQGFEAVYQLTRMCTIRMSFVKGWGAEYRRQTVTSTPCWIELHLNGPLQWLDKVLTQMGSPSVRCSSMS

Binder | cleavage of the MET C-terminus (loss of C12 signal in Western blot) [1] | binding result [2] | binding result [3]
B1 | Cisplatin-induced caspase-3 cleavage was associated with a loss of detectable MET protein in Western blots with the C12 antibody |  | 
B2 |  | binds | no binding (tested: 1 µg each)
